The target of experiment [1] is Pyruvate:ferredoxin oxidoreductase PFOR1 of Thermoanaerobacter kivui (Thermoanaerobacter kivui). Description: SEC; analytical size exclusion chromatography on a calibrated Superdex 200 column, buffer E (50 mM Tris/HCl, 150 mM NaCl, 20 mM MgSO4, 2 mM DTE, 4 µM resazurin, 20% glycerol, pH 7.5), size standards ovalbumin, albumin, catalase, ferritin.
For experiment [2] the target is unchanged.

Regarding “Pyruvate:ferredoxin oxidoreductase PFOR1 of Thermoanaerobacter kivui (enzyme)”, the stoichiometry N in experiment [1] turned out to be 2.

B1: Ferredoxin isolated from Clostridium pasteurianum (natural protein)
chain: MAYKIADSCVSCGACASECPVNAISQGDSIFVIDADTCIDCGNCANVCPVGAPVQE
As to B1, in experiment [2], the Km for Fd of the pyruvate-dependent Fd reduction by purified PFOR1 (enzyme activity, 66 °C, pH 7.5, Fd 0-50 µM) came to 19.1 µM.
